In patent US20160033523A1 (NOVOZYMES BIOPHARMA DK A S, published 2016):

Tests used:
[1] = molecular target: T1, Soluble rat FcRn, GST-tagged, with human beta2-microglobulin (rat; Schistosoma japonicum; human, UniProt P08515 1-218 = GST); assay: SPR, albumin over immobilized GST-FcRn, pH 6.0, steady state
T1 construct: also called srFcRn
Method: (§1) SPR experiments were carried out using a Biacore 3000 instrument (GE Healthcare). Flow cells of CM5 sensor chips were coupled with soluble FcRn from one of the following species, human (shFcRn), rat (srFcRn), mouse (smFcRn), rhesus monkey (srmFcRn), dog (dFcRn) or pig (pFcRn) (˜900-2500 resonance units (RU)) using GE Healthcare amine coupling chemistry as per the manufacturer's instructions. The coupling was performed by injecting 2 or 10 μg/ml FcRn in 10 mM sodium acetate pH 5.0 (GE healthcare). Phosphate buffer (67 mM phosphate buffer, 0.15 M NaCl, 0.005% Tween 20) at pH 6.0) was used as running buffer and dilution buffer. Regeneration of the surfaces were done using injections of HBS-EP buffer (0.01 M HEPES, 0.15 M NaCl, 3 mM EDTA, 0.005% surfactant P20) at pH 7.4 (GE Healthcare). For determination of binding kinetics, serial dilutions of albumin (10-0.3 μM) were injected over immobilized receptors at a constant flow rate (50 μl/min) at 25° C. In all experiments, data were zero adjusted and the reference cell subtracted.

[2] = molecular target: T2, Soluble mouse FcRn, GST-tagged, with human beta2-microglobulin (mouse; Schistosoma japonicum; human, UniProt P08515 1-218 = GST); assay: as above
T2 construct: also called smFcRn
Method: as §1

[3] = molecular target: T1, Soluble rat FcRn, GST-tagged, with …; assay: SPR, albumin over immobilized GST-FcRn, pH 6.0, 1:1 model
Method: as §1

[4] = molecular target: T3, Soluble dog FcRn, GST-tagged, with human beta2-microglobulin (dog; Schistosoma japonicum; human, UniProt P08515 1-218 = GST); assay: as above
T3 construct: also called dFcRn
Method: as §1

[5] = molecular target: T4, Soluble rhesus monkey FcRn, GST-tagged, with human beta2-microglobulin (rhesus monkey; Schistosoma japonicum; …, UniProt P08515 1-218 = GST); assay: as above
T4 construct: also called srmFcRn; soluble rhesus macaque FcRn
Method: as §1

[6] = molecular target: T2, Soluble mouse FcRn, GST-tagged, with …; assay: as above
Method: as §1

[7] = molecular target: T5, Soluble pig FcRn, GST-tagged, with human beta2-microglobulin (Example 2) (pig; Schistosoma japonicum; human, UniProt P08515 1-218 = GST); assay: as above
T5 construct: also called pFcRn; spFcRn
Method: as §1

[8] = molecular target: T6, Wild type cynomolgus macaque serum albumin (cynomolgus macaque, UniProt A2V9Z4 24-608); assay: SPR, albumin over immobilized His-FcRn, pH 5.5, 1:1 Langmuir
T6 construct: also called CSA; native cyno albumin
T6 sequence (A2V9Z4 24-608): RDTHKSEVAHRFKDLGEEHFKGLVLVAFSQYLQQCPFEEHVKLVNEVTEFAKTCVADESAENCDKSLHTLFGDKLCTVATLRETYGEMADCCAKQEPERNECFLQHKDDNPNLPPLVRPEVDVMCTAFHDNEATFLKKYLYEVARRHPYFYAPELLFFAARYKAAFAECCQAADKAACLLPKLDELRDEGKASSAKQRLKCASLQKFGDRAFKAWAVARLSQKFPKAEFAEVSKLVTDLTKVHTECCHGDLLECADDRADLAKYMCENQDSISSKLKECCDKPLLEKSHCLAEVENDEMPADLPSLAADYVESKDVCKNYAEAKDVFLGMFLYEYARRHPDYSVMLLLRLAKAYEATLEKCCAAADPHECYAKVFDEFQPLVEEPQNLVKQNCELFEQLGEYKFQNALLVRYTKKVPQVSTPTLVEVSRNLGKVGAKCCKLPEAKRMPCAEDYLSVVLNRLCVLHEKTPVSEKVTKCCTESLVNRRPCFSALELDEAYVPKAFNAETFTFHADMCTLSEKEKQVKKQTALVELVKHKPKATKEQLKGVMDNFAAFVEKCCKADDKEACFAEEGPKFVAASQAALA
Method: as §1
The SPR assay was conducted with the following variations to the assay described in the Materials and Method section:
The soluble FcRn receptors were synthesized by GeneArt and expressed in HEK cells. The soluble FcRn contained a HIS-tag on the C-terminal of the Beta-chain instead of a GST on the heavy chain and the beta-chain used was the native beta-chain of the animal (see Materials and Method section for the corresponding sequences). The soluble FcRn was purified by a HIS trap column followed by an additional purification using an IgG column. The soluble FcRn receptor was diluted to 20 μg/mL. The phosphate buffer used as running buffer in the SPR assay was at pH 5.5 instead of pH 6.0. […] 1:1 Langmuir or Steady state model was used.

Row | Binder | Kd [1] | Kd [2] | Kd [3] | koff [3] | kon [3] | Kd [4] | koff [4] | kon [4] | Kd [5] | koff [5] | kon [5] | Kd [6] | koff [6] | kon [6] | Kd [7] | koff [7] | kon [7] | Kd [8]
1 | Wild type rat serum albumin (ligand, also called RSA; RSA Wt) EAHKSEIAHRFKDLGEQHFKGLVLIAFSQYLQKCPYEEHIKLVQEVTDFAKTCVADENAENCDKSIHTLFGDKLCAIPKLRDNYGELADCCAKQEPERNECFLQHKDDNPNLPPFQRPEAEAMCTSFQENPTSFLGHYLHEVARRHPYFYAPELLYYAEKYNEVLTQCCTESDKAACLTPKLDAVKEKALVAAVRQRMKCSSMQRFGERAFKAWAVARMSQRFPNAEFAEITKLATDVTKINKECCHGDLLECADDRAELAKYMCENQATISSKLQACCDKPVLQKSQCLAEIEHDNIPADLPSIAADFVEDKEVCKNYAEAKDVFLGTFLYEYSRRHPDYSVSLLLRLAKKYEATLEKCCAEGDPPACYGTVLAEFQPLVEEPKNLVKTNCELYEKLGEYGFQNAVLVRYTQKAPQVSTPTLVEAARNLGRVGTKCCTLPEAQRLPCVEDYLSAILNRLCVLHEKTPVSEKVTKCCSGSLVERRPCFSALTVDETYVPKEFKAETFTFHSDICTLPDKEKQIKKQTALAELVKHKPKATEDQLKTVMGDFAQFVDKCCKAADKDNCFATEGPNLVARSKEALA | 4.1 µM | 2.6 µM | 3.2 µM | 0.026 s⁻¹ | 7600 M⁻¹ s⁻¹ | 5.8 µM | 0.048 s⁻¹ | 8300 M⁻¹ s⁻¹ | 2.2 µM | 0.0101 s⁻¹ | 4500 M⁻¹ s⁻¹ | 2.6 µM | 0.0341 s⁻¹ | 13000 M⁻¹ s⁻¹ | 6.4 µM | 0.071 s⁻¹ | 11000 M⁻¹ s⁻¹ | –
2 | Soluble cynomolgus macaque FcRn with cynomolgus beta2-microglobulin, HIS-tagged (receptor, Synthesized by GeneArt, expressed in HEK cells; also called CynoFcRn; Cyno FcRn; not shown: HIS-tag on the C-terminal of the beta-chain) AESHLSLLYHLTAVSSPAPGTPAFWVSGWLGPQQYLSYDSLRGQAEPCGAWVWENQVSWYWEKETTDLRIKEKLFLEAFKALGGKGPYTLQGLLGCELSPDNTSVPTAKFALNGEEFMNFDLKQGTWGGDWPEALAISQRWQQQDKAANKELTFLLFSCPHRLREHLERGRGNLEWKEPPSMRLKARPGNPGFSVLTCSAFSFYPPELQLRFLRNGMAAGTGQGDFGPNSDGSFHASSSLTVKSGDEHHYCCIVQHAGLAQPLRVELETPAKSS b2m: IQRTPKIQVYSRHPPENGKPNFLNCYVSGFHPSDIEVDLLKNGEKMGKVEHSDLSFSKDWSFYLLYYTEFTPNEKDEYACRVNHVTLSGPRTVKWDRDM | – | – | – | – | – | – | – | – | – | – | – | – | – | – | – | – | – | 35 µM
